Each block holds one molecule with its values, some of them ahead of it.
How the values were obtained:
Experiment in all cases: cryo-EM structure; CMG (125 nM) with fork DNA, AMP-PNP, TIM-1/TIPN-1 and DNSN-1 isoform c (each 1.3-fold molar excess), GraFix gradient with glutaraldehyde and BS3
[1] = biological target: recombinant C. elegans DNSN-1 (C. elegans)
MCM-4 = biological target: T1, MCM-4 (C. elegans, UniProt Q95XQ8 1-823); conditions: both partners purified
T1 construct: MCM-4, C. elegans; Subunit of m11, written alone for its interfaces in the structure; source: S. cerevisiae, purified as part of recombinant CMG
T1 sequence: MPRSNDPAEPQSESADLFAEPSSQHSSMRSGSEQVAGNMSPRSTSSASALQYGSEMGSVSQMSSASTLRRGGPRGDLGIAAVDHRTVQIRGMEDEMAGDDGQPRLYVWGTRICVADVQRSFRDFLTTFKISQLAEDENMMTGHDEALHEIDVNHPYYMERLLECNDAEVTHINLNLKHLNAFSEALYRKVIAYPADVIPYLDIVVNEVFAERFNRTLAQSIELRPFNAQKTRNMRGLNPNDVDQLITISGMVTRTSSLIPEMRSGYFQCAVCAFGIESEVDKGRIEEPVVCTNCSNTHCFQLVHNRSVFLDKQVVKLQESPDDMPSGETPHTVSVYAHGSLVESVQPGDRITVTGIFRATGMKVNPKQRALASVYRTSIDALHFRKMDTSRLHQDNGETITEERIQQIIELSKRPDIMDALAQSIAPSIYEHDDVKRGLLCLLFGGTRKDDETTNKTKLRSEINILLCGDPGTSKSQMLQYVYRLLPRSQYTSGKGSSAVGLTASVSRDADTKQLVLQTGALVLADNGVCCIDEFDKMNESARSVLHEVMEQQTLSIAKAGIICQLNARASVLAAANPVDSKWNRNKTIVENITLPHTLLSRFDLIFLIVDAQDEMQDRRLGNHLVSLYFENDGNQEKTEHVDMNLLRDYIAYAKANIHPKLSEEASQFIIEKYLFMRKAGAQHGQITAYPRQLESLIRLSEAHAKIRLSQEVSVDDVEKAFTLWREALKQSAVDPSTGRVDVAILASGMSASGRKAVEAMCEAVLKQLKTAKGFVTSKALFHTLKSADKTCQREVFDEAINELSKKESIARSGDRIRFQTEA

MCM-3 = biological target: T2, MCM-3 (C. elegans, UniProt Q9XVR7 1-812); conditions: both partners purified
T2 construct: MCM-3, C. elegans; Subunit of m11, written alone for its contacts in the structure; also called MCM-3 subunit of MCM-2-7; source: S. cerevisiae, purified as part of recombinant CMG
T2 sequence: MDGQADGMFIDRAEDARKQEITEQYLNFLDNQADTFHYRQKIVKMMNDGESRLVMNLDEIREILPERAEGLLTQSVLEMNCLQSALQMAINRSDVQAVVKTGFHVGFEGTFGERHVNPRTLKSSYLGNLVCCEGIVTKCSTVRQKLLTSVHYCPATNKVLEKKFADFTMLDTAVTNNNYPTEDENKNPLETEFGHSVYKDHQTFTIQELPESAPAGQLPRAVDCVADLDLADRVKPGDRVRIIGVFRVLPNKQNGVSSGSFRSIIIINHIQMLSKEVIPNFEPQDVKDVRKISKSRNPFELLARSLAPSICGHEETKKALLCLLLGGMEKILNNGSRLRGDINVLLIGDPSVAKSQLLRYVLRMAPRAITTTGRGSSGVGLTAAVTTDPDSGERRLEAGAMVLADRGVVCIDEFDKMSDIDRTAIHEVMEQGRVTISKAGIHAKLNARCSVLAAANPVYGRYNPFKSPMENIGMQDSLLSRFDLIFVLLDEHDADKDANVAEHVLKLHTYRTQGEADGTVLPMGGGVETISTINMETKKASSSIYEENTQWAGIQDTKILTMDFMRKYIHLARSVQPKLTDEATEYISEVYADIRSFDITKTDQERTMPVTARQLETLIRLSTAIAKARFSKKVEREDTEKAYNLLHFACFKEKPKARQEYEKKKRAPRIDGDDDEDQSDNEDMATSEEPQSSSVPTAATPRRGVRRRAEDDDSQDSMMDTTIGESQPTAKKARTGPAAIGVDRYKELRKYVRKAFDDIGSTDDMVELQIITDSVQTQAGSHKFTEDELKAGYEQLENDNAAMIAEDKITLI

- stoichiometry N [1]: 2
Molecule: recombinant C. elegans DNSN-1 (natural protein)

- binding result (MCM-4): binds
- binding result (MCM-3): binds
B1: MCM-7 (natural protein, C. elegans)
chain: MKTTTYNTDWAAEKTKIRSFFDEYYVDNEDGSGKAFPYRDQVFEIARRDKQAIVVNVDHIKESDIPDALELSEAITSNTKRYEVLFKDTISDMIQDYLGDKQAPVIDALDAYMFQRLHMDRNEGAANEEVSLQDKRKKYPPQLLQRFEVYFTTDDAAHETCVRNIKATEIGHLVSMKGVVIRATEVKPCVEVMTYTCDTCAAEVYQPVKGMQFTPPVNCPNKECVEAKANGRLHMQLRGSKFVKFQELKIQELSEQVPVGSIPRTMTVHVYGEMTRKCNTGNVVHVSGVFLPIMQSGFRPTGGLVADTYLEAHYINNLDDNPTFNGVQSAELEVLRRKGDNYETLAASIAPEIFGHVDVKKCLLMALVGGNDNSSNGMKIRGCINVLMMGDPGVAKSQLLGYVNRLAPRSQYTTGRGSSGVGLTAAVMKDPVTGEMSLEGGALVLADGGICCIDEFDKMMDHDRTAIHEVMEQQTISIAKAGIMTTLNARTAIIAAANPAYGRYNPNRSIEQNVDLPAALLSRFDLILLMQDKADRENDKILAEHITYVHQHGCHPNREKKDLISLETLREYISLCKTYTPTVDPALRERIVEAYVEMRRDARYSSDPTFVSPRMILGIVRMATARAKLRLSTIVDESDVEEALRLMQFAKDSLRPEQNKIEKRMAPVDAAFAVLRELYHADNAPIAISNAIQRCARKGISEVALKKCLDQYTANGLLVMDRQNIVFAMN
notes: MCM-7, C. elegans; Subunit of m11, written alone for its interfaces in the structure; source: S. cerevisiae, purified as part of recombinant CMG
